Source: IntAct's records for PubMed 31695625

What was measured:
SLC2A9, Q9NRM0-1 = target: T1, SLC2A9, Q9NRM0-1
T1 sequence: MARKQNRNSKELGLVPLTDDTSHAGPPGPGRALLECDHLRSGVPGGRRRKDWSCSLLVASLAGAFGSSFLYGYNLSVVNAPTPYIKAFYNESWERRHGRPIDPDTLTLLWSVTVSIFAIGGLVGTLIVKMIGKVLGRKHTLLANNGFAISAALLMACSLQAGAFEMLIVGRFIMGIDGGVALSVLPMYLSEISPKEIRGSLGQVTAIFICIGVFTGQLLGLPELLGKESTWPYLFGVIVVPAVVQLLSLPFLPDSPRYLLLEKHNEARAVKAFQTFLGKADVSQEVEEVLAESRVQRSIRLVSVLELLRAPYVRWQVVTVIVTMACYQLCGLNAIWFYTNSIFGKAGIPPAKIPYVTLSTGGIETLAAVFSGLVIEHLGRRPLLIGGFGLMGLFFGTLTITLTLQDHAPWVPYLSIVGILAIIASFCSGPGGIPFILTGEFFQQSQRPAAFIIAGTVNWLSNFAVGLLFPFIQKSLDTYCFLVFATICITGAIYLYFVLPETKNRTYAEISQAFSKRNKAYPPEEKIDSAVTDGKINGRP

SLC2A9, Q9NRM0-2 = target: T2, SLC2A9, Q9NRM0-2
T2 sequence: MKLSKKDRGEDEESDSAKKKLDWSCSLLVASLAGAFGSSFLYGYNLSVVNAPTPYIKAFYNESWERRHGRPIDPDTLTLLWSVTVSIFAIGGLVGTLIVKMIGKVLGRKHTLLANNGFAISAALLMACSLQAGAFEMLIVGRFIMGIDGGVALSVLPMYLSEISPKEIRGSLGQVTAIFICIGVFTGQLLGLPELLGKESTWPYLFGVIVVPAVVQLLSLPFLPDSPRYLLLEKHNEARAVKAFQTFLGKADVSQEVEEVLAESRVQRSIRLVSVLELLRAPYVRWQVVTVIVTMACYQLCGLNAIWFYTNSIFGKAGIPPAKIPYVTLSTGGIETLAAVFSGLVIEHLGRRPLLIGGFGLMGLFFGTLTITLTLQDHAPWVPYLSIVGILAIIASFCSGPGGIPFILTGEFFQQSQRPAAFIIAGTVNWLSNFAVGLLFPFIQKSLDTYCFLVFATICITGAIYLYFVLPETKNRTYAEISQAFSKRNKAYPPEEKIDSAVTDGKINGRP

## Integral membrane protein 2B (Homo sapiens) (from UniProt Q9Y287) E261A
SLC2A9, Q9NRM0-1
  effect of a mutation on the interaction: with no effect
SLC2A9, Q9NRM0-2
  effect of a mutation on the interaction: with no effect

## Integral membrane protein 2B (Homo sapiens) (from UniProt Q9Y287) N170Q
SLC2A9, Q9NRM0-1
  effect of a mutation on the interaction: decreasing interaction strength
